Biological target: RDE-4 variant R2C (dsRBM2 and C-terminus) (C. elegans)
Experiment: SEC

## RDE-4 variant R2C (dsRBM2 and C-terminus) (domain or fragment)
  stoichiometry N: 2
